# Assay: Cleavage of conjugate in potassium phosphate buffer and rat serum
# Assay type: in vitro ADME
# Conditions: potassium phosphate buffer pH 7.4 and rat serum (1:1), 37° C., overnight incubation
# Experimental: A mixture of compound (26) (2.9 mg) in potassium phosphate buffer (1.0 mL, pH 7.4) and rat serum (1.0 mL, Aleken Biologicals) was incubated at 37° C.
substance,measurement,value
L-glutathione N^2-CBZ-lysine conjugate [Compound 26],Cleavage (hydrolysis) of conjugate releasing N^2-(carbobenzyloxy)-L-lysine,hydrolysis of compound (26) to yield N^2-(carbobenzyloxy)-L-lysine was observed

# From patent US9695189B2, “Chemical crosslinkers and compositions thereof” (priority 2013, dated 2017)
